How the values were obtained:
[1] = molecular target: RAC3 (human), P60763; test: stopped-flow fluorimetry; kon from kobs against increasing GDI concentrations mixed with 0.2 µM mdGDP-bound RHO GTPase; koff by displacement with excess unlabeled GDP-bound RHO protein; Kd = koff/kon; 25 °C, 30 mM Tris/HCl pH 7.5, 10 mM K2HPO4/KH2PO4 pH 7.5, 5 mM MgCl2, 3 mM DTT; details: remark: other sources report otherwise
[2] = molecular target: RAC2 (human), P15153; test: as above; details: remark: other sources report otherwise

fold faster kon than GDI1 [1]: > 10 fold
fold slower koff than GDI1 [1]: < 4 fold
Kd [2]: 18.8 µM
B1: GDI2, P52566 1-201 (natural protein)
chain: MTEKAPEPHVEEDDDDELDSKLNYKPPPQKSLKELQEMDKDDESLIKYKKTLLGDGPVVTDPKAPNVVVTRLTLVCESAPGPITMDLTGDLEALKKETIVLKEGSEYRVKIHFKVNRDIVSGLKYVQHTYRTGVKVDKATFMVGSYGPRPEEYEFLTPVEEAPKGMLARGTYHNKSFFTDDDKQDHLSWEWNLSIKKEWTE
